Data reported in patent US20150038427A1.

Target: collagen
Assay: SPR (Biacore 2000), collagen immobilised on CM-3 chip, peptide as analyte, from on-off binding kinetics

**Q.** With RRANAALKAGELYKSILYGC [peptide … (SILY)] as the binder, how does the Kd read?
**A.** Its Kd is 1200 nM.
